Measured values published in the nanobody polyreactivity screen of Harvey et al. (2022).

Test: yeast display, Sf9 membrane polyspecificity reagent, FACS + sequencing; frameworks hold sequencing errors
Method in brief: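 Galactose induction of a Saccharomyces cerevisiae BJ5465 synthetic nanobody display library ran 36–48 hours. The cells were then stained for 1 hour at 4 °C with 10% biotinylated, detergent-solubilized Sf9 membrane reagent, pulled down on streptavidin microbeads and FACS-sorted into low and high (top ~1%) gates on expression and reagent-binding fluorescence. Labels for polyreactivity follow the gate of origin.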

Sequence	polyreactivity (PSR sort gate)
QVQLVESGGGLVQAGGSLRLSCAASGSIFAVNAMGWYRQAPGKERELVAAIDWSDGITYYADSVKGRFTISRDNAKNTVYLQMNSLKPEDTAVYYCAADATAYGWYVEQFSFYDNDYWGQGTQVTVSS	high polyreactivity
QVQLVESGGGLVQAGGSLRLSCAASGIIFYYNAMGWYRQAPGKERELVAAISWSGGSTYYADSVKGRFTISRDYAKNSVYLQMNSLKTEDTAVYYCAADYYWRVHYGYWGQGTQVTVSS	high polyreactivity
QLQLVESGGGLVQAGGSLRLSCAASGRTFFGYAMGWYSQAPGKERELVATIDGSDGSTFYADSGKGRFTISRDNAKNTVYLQMNSLKPEDTAVYYCAAENFWQTKEYDYWGQGTQVTVSS	low polyreactivity
QVQLVESGVGLVQAGGSLRLSCAASGIIFYPNAMGWYRQAPGKERELVAAISWRSGSTYYADSVKGRFTISRDNAKKTVYLQMNSLKPEDTAVYYCNADFWYSYGYDYWGQGTQVTVSS	low polyreactivity
QVQLVESGGGLVQAGGSLRLSCAASGSTFRGNAMGWYRQAPGKERELVAAISRRGGSTNYADSVKGRFTISRDNAKNTVYLQMNSLKPEDTAVYYCNKGDYRSAYRHIEYGYWGQGTQVTVSS	low polyreactivity
QVQLVESGGGLVQAGGSLRLSCAASGSIFTYYAMGWYRQAPGKERELVAAISLDGGSTYYADSVKGRFTISRDNAKNTVYLQMNSLKPEDTAVYYCAADYRFFPYTYLYDYWGQGTQVTVSS	low polyreactivity
QVQLVESGGGLVQAGGSLRLSCAASGSIFVPYAMGWYRQAPGKEREFVAAMYSGGGNTYYADSVKGRFTISRDNAKNTVYLQMNSLKREDTAVYYCAAAYVYSSWSRYDYWGQGTQVTVSS	high polyreactivity
QVQLVESGGGLVQAGGSLRLSCAASGSTSYNAMGWYRQAPGKERELVAAISDGGGSTYYADSVKGRFTISRDNAKNTVYLQMNSLKPEDTAVYYCAADTITGDGYWAQGTQVTVSS	low polyreactivity
QVQLVESGGGLVQAGGSLRLSCAASGFIFGVYAMGWYRQAPAKERELDAAISYRTGTTYYADSVKGRFTISRDNAKNTVYLQMNSLKPEDTAVYYCAAKSRAAVRKYGSEYWGQGTQVTVSS	high polyreactivity
QVQLVESGGGLVQAGGSLRLSCAASGSIFPPYAMGWYRQAPGKERELVATITIRGGSTYYADSVKGRFTISRDNAKNTVYLQMNSLKREDTAVYYCAADYTKYYRRYYYWGQGTQVTVSS	high polyreactivity
QVQLVESGGGLVPAGGSLRLSCASSGIIFWVNAMGWYRQAPGNERELVAAIRSDGSTKYADSVKRRFTISRDKAKNTVYVQMNSLKPVDTALYYCAKRDYSYPWFRDYYYWGQGTKVTVSS	low polyreactivity
QVQLVESGGGLVQAGGSLRLSCAASGSTFVYYAMGWYRQAPGKERELVAAISSGGNTKYADSVKGRFTISRDNAKNTVYLQMNSLKPEDTAVYYCARESQSYYDHDYWGQGTQVTVSS	low polyreactivity
QVQLVESGGGLVQAGGSLRLSCAASGSIFGLYAMGWYRQAPGKERELVAGITYSGGSTYYADSVKGRFTISRDNAKNTVYLQLNSLKPEDTAVYYCNTRYWRGWYAYYYWGQGTQVTVSS	high polyreactivity
QVQLVESGGGLVQAGGSLRLSCAASGSTFRWNTMGWYIQAPGKERELVAAISYSGGITYYADSVKGRFTISRDNAKNTVYLQMNSLKPEDTAVYYCYATRVRGWYVTRYYYWGQGSQVTVSS	high polyreactivity
QVQLVESGGGLVQAGGSLRLSCAASGRIFYNYVMGWYRQAPGKERELVAAISSSGGSTYYADSVKGRFTISRDNAKNTVYLQMNSLKPEDTAVYYCGTTRRVPGEYWGQGTQVTVSS	high polyreactivity
QVQLVESGGGLVQAGGSLRLSCAASGRTFRVYVMGWYRQAPGKERELVAAISKSGTSTYYADSVKGRFTISRDNAKNTVYLQMNSLKPEDTAVYYCAAALPGYGDYYYWGQGTQVTVSS	high polyreactivity
QFQLVESGGGLDQAGGSLRLSCAASGLTFYGYAMGWYRQAPGKERELVAAITWGGGSTYYADSVKGRFTISRDKAKNTVYLQMNSLKPEETEVYYCNADYYLPAIRYDYWGQGTKVTVSS	low polyreactivity
QVQLVESGGRLVQAGGSLRLSCAASGSIFYYYAMGWYRQAPGKERELVAAINGGDTYYADSVKGRFTISRDNAKNTVYLQMNSLKPEDTAVYYCAAEGVTVEWDYDYLGQGTQVTVSS	low polyreactivity
QVQLVESGGGLVQAGGSLRLSCAASGFIFRPYAMGWYRQAPGKERELVATISYRGGSTDYADSVKGRFTISRDNAKNTVYLQMNSLKPEDTAVYYCNAGYNRGYYYPVFAFFPYEYWGQGTQVTVSS	low polyreactivity
QVQLVESGGGLVQAGGSLRLSCAASGFIFARNTMGWYRQAPGKERELVAAITKSGGSTYYADSVKGRFTISRDNAKNTVYLQMNSPKPEDTSVYYCAARSWWLRGIYGFDSWGQGTQVTVSS	low polyreactivity
QVQLVESGGGLVQAGGSLRLSCAASGSTLSRYTMGWYRPEPGKERELVAAIRSSGGSTYYADSVKGRFTISRDNAKNTVYLQMNSLKPEDTAVYYCARTQQRTTERVHWIRYYYWGQGTQVTVSS	low polyreactivity
QGQLVESGGGLVQAGGSLRLSCAASGFIYGFYGMGWYRQAPGKEREFVAAIDFIDGDTYYADSVKGRFTISRDNAKNTVYLQMNSLKPEDTAVYYCAAVGSFWQFDYWGQGTQVTVSS	low polyreactivity

Sequence	polyreactivity (PSR sort gate)
QVQLVESGGGLLQAGGSLRLSCAASGSTFVYYAMGWYRQAPGKERELVASINSGGSTYYADSVKGRFRISRDNEKNTVYLQMNSLKPEDTAVYYCAATSIPPSVHLQDPTYDYWGQGTQVTVSS	low polyreactivity
QVQLVESAGGLVQAGGSLRLSCAASGFIFSRNAMGWYRQAPGKERELVAVISTSGGSTYYADSVKGRFTISRDNAKNTVYLQMNSLKPEDTAVYYCAARRTRGYEYWGKGTQVTVSS	high polyreactivity
QVQLVESGGGLVQAGGSLRISCAASGRIFVSNAMGWYRQAPGKDRELVAAISKSGARTSYADSVKGRFTISRDNAKNTVYLQMNSLKPEDTAVYYCAAPVRWSGGGEYPNYYWGQGTQVTVSS	high polyreactivity
QGQLVESGGGLVQAGGSLRLSCAASGRTFTYYVMGWSRQAPGKERELVAAISWTGGSTNYADSVMGRFTISRDNAKNTVYLQMNSRKPEDTAVYYCNAGGFFGYGRPGYYWGQGTQVTVSS	low polyreactivity
QVQLVESGGGLVQAGGSHRLSCDASGRIFGPYAMGWYRQAPGKESELVATISWRGARTYYADSVKGRFTISRDNAKNTVYLQMNSLKPEDTAVDYCAATFYYSARFDYWGQGTQVTVSS	high polyreactivity
QVQLVESGGGLVQAGGSLRLSCAASGRTFGYNAMGWYRQAPGKERELVAAIRTIGDSTYYADSVKGRFTISRDNAKNTVYLQMNSLKPEDTAVYYCAARKLRSRYDYWGQGTQVTVSS	high polyreactivity
QVHLVESGGGLVQAGGSLRLSCAASGSTFALYGMGWYRQAPGKERELVAASTWSGTGTYYADSVKGRFTISRDNAKNTVYLQMNSLKPEDTAVYYCAADGYTTYYSEFYYWGQATQVTVSS	low polyreactivity
QVQLVESGGGLVQAGGSLRLSCAASGSIFYINAMGWYRQAPGKERELVAAINRGGSTNYADSVKGRFTISRDNAKNTVYLQMNSLKPEDTAVYYCAAYIYKTYRYYYWGQGTQVTVSS	high polyreactivity
QVQLVESGGGLVQAGGSLRLSCAASGRTFNYYAMGWYRQAPGKERELVAAISSRGGTYYADSVKGRFTISRDNAKNTVYLQMNSLKPEDTAVYYCNAVHYDTISDYWGQGTQVTVSS	high polyreactivity
QVQLVESCGGLVQAGGSHRLSCAASGRTFRYYAMGWYRQAPWKERELVAAIRRGGSTTYADSVKVRFTISRDNAKNTVYLQMNSLKPEDTAVYYCAARYPGTRGDGYWGQGTQVTVSS	high polyreactivity
QVHLVESGVGLVQAGGSLRLSCAASGYIFPYYTMGWYRQAPGKERELVAAITIGGSTYYADSVKGRFTISRDNAKNTVYLQMNSLKPEDTAVYYCAARSRYYDTRFDYWGQGTQVTVSS	low polyreactivity
QVQLVESGGGLVQAGGSLRLSCAASGLIFSYNAMGWYRPATGNERELVATIRRVGSTNYADSVKGRFTISRDNAKITVYLQMNSLKPEDTAVYYCAARSLRYGRGMYYWGQGTQVTVSS	high polyreactivity
QVQVVESGGGLVQAGGSLRLSCAASGSTFYRYAMGWYRQAPGKERELVAAITRGGGRTYYADSVKGRFTISRDHAKNTVYLQMNSLKPEDSAVYYCNAASPYYDSWGQGTQVTVSS	high polyreactivity
QVQLVESGGGLVQAGGSLRLSCAASGRTFYANLMGWYRQAPGKERELVAAITYSGGSTYYADSVKGRFTISRDNATITVYLPMSSLKPEDTAVYYCAADNVSTFYYWGQGTQVTVSS	low polyreactivity
QVQLVESGGGLVQAGGSLRLSCAASGSIFPYNPMGWYRQAPGEFGAAISYSSGSTYYADSVKGRFTISRDNAKNTVYLQMNSLKPEDTAVYYCAAGLPKYEHEYWGQVTQVTVSS	low polyreactivity
QVQLVESGGGLVQAGGSLRLSSAATGSIFRGNAIGWYRQAPWKELELVASISYSRGSTYYADSVKGRFTISRDNEKNTVYLQMNSVKPEETAVYYCARDYDAAYYLSEYIRSVEFDYWGQGTQVTVSS	low polyreactivity
QVQLVESGGGLVQAGGSLRLSCAASGSILTLYSMGWYRQAPGKERELVAAISSTGGRTYYADSVKGRFTISRDNAKNTVYVQMNSLKPEDTAFYYCAARGWGGLRSYGYYYWGQGTQVTVSS	high polyreactivity
QVQLVESGGGLVQAGGSLRLSCAASGRTFNGYAMGWYRQAPGKERELVAGISWRGTSTYYADSVKGRFTISRDNAKNTVYLQMNSLKPEDTAVYYCAADVWRVQHRGYNYWGQGTQVTVSS	high polyreactivity
QVQLVESGGGLVQAGGSLRLSCAASGSTSVDYTMGWSRQAPGKERELVAAIDYNGDSTYYADSVKGRFTISRDNAKITVYLQMNRLKPEDTAVYYCADDVWTLDPDEYDYWGQGTQVTVSS	low polyreactivity
QVQLVESGGGIVQAGGSLRLTCAASGRIFRSYAMGWYRQAPGKERELVATITWSGTSTYADSVKGRFTISRDNAKNTVYLQMNSLKPEDTAVYYCAAVALFPKYRYYSWGQGTQVTVSS	high polyreactivity
QVQLVESGGGLVQAGGSLRLSCAASGRTFHRYVMGWYRQAPGKERELVAAITRSGGITYYADSVKGRFTISRDNAKNTVYLQMNSLKPEDNAVYYCAKDDLTASGFDYWGQGTQVTVSS	low polyreactivity
